Among the data in PMC9482650, “Quantitative fragmentomics allow affinity mapping of interactomes” (Nature Communications, 2022) are pKd values, retold here.

Substitutions are numbered along the chain they refer to.

One may read the pKd as the Kd on a negative log10 scale, so that one unit is a factor of ten.

Among the targets are HTRA1, Q92743; DLG2_2, Q15700; LNX1_1, Q8TBB1; MAGI1_2, Q96QZ7; GIPC2, Q8TF65; MAST1, Q9Y2H9; GRID2IP_2, A4D2P6.
Holding throughout (test): holdup assay
Parameters in all cases: key: below the threshold = too weak to quantify, mostly under pKd 3.1 to 4

The target in the next assay is T1, ARHGAP21, Q5T5U3.
T1 sequence (Q5T5U3 45-169, limits assumed, looked up): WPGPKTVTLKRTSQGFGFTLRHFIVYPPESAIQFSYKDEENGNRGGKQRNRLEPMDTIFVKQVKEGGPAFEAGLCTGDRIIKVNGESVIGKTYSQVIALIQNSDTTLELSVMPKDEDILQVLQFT
The settings on record: plain residues with an end cap or a label only (N-terminal biotin on a linker: ado-ado).

A further assay deals with T2, LIN7B, Q9HAP6.
T2 sequence (Q9HAP6 88-185, limits assumed, looked up): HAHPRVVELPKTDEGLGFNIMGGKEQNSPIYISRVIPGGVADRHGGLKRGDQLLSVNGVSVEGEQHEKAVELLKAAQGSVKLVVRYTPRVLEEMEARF
The note with it: plain residues with an end cap or a label only (N-terminal biotin on a linker: ado-ado).

A further assay concerns the target T3, SHANK1, Q9Y566.
T3 sequence (Q9Y566 658-767, limits assumed, looked up): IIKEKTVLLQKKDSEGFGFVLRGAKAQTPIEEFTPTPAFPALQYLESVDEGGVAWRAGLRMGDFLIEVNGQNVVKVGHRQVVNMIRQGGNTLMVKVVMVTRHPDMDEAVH
The settings on record: plain residues with an end cap or a label only (N-terminal biotin on a linker: ado-ado).

The next assay has as its target T4, MPDZ_12, O75970.
T4 sequence (O75970 1857-1958, limits assumed, looked up): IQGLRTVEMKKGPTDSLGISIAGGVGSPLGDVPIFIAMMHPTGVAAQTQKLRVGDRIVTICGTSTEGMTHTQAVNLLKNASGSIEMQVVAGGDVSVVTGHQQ
The settings on record: plain residues with an end cap or a label only (N-terminal biotin on a linker: ado-ado).

The target in the next assay is TJP2_1, Q9UDY2. The note with it: plain residues with an end cap or a label only (N-terminal biotin on a linker: ado-ado).
In a further assay the target is T5, GRIP1_5, Q9Y3R0.
T5 sequence (Q9Y3R0 568-668, limits assumed, looked up): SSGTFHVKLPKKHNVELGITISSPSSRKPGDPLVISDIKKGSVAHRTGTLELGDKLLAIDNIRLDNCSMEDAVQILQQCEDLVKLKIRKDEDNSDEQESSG
The settings on record: plain residues with an end cap or a label only (N-terminal biotin on a linker: ado-ado).

The target in a further assay is IL16_3, Q14005. The note with it: plain residues with an end cap or a label only (N-terminal biotin on a linker: ado-ado).
In another assay the target is T6, MPDZ_10, O75970.
T6 sequence (O75970 1624-1722, limits assumed, looked up): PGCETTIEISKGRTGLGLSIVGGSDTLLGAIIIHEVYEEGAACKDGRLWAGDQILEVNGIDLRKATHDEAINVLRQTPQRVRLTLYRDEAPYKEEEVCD
The settings on record: plain residues with an end cap or a label only (N-terminal biotin on a linker: ado-ado).

The next assay concerns the target GORASP2, Q9H8Y8. The note with it: plain residues with an end cap or a label only (N-terminal biotin on a linker: ado-ado).
In the next assay the target is TJP1_3, Q07157. The note with it: plain residues with an end cap or a label only (N-terminal biotin on a linker: ado-ado).
The target of another assay is DLG1_3, Q12959. The note with it: plain residues with an end cap or a label only (N-terminal biotin on a linker: ado-ado).
A further assay has as its target DLG2_3, Q15700. The settings on record: plain residues with an end cap or a label only (N-terminal biotin on a linker: ado-ado).
In a further assay the target is T7, DLG3_1, Q92796.
T7 sequence (Q92796 125-227, limits assumed, looked up): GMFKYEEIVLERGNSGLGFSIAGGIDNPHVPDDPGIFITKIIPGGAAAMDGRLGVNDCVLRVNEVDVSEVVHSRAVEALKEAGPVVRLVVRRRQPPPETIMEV
The note with it: plain residues with an end cap or a label only (N-terminal biotin on a linker: ado-ado).

Another assay deals with FRMPD2_1, Q68DX3. The settings on record: plain residues with an end cap or a label only (N-terminal biotin on a linker: ado-ado).
For the next assay, the target named is DLG4_2, P78352. The note with it: plain residues with an end cap or a label only (N-terminal biotin on a linker: ado-ado).
A further assay deals with NHERF4_1, Q86UT5-2. The note with it: plain residues with an end cap or a label only (N-terminal biotin on a linker: ado-ado).
The target in another assay is APBA3_1, O96018. The note with it: plain residues with an end cap or a label only.
For another assay, the target named is T8, TIAM2, Q8IVF5.
T8 sequence (Q8IVF5 885-986, limits assumed, looked up): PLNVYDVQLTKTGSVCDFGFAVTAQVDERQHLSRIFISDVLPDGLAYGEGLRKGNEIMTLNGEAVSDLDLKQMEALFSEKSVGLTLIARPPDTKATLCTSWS

Another assay has as its target MAGI2_6, Q86UL8. The note with it: plain residues with an end cap or a label only (N-terminal biotin on a linker: ahx).
The target of a further assay is T9, APBA1_2, Q02410.
T9 sequence (Q02410 742-832, limits assumed, looked up): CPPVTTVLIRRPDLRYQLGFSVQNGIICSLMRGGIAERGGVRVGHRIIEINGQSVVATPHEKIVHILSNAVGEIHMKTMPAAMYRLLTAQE
The settings on record: plain residues with an end cap or a label only (N-terminal biotin on a linker: ahx).

A further assay concerns the target DLG1_2, Q12959. The settings on record: plain residues with an end cap or a label only (N-terminal biotin on a linker: ahx).
The target in a further assay is GRASP, Q7Z6J2. The note with it: plain residues with an end cap or a label only (N-terminal biotin on a linker: ahx).
In another assay the target is IL16_1, Q14005. The note with it: plain residues with an end cap or a label only (N-terminal biotin on a linker: ahx).
A further assay concerns the target Inadl_10, Q8NI35. The settings on record: plain residues with an end cap or a label only (N-terminal biotin on a linker: ahx).
Another assay addresses NOS1, P29475. The note with it: plain residues with an end cap or a label only (N-terminal biotin on a linker: ahx).
The target of a further assay is ARHGEF12, Q9NZN5-2. The note with it: plain residues with an end cap or a label only (N-terminal biotin on a linker: ahx).
Another assay deals with MAGI2_5, Q86UL8. The note with it: plain residues with an end cap or a label only (N-terminal biotin on a linker: ahx).
The target of a further assay is T10, ARHGEF11, O15085.
T10 sequence (O15085 42-136, limits assumed, looked up): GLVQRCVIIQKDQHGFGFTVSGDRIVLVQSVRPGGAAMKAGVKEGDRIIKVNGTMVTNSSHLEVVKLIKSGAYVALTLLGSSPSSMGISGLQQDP
The settings on record: plain residues with an end cap or a label only (N-terminal biotin on a linker: ahx).

The target in the next assay is T11, SYNJ2BP, P57105.
T11 sequence (P57105 8-110, limits assumed, looked up): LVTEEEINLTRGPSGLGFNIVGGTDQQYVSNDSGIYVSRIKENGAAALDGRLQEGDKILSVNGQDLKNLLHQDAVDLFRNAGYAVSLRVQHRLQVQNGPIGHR

The target in a further assay is T12, PDZD7_3, Q9H5P4.
T12 sequence (Q9H5P4 857-944, limits assumed, looked up): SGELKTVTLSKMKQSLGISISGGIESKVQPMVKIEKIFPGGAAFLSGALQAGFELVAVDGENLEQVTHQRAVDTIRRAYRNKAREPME
The note with it: plain residues with an end cap or a label only (N-terminal biotin on a linker: ado-ado).

A further assay has as its target T13, DFNB31_3, Q9P202.
T13 sequence (Q9P202 811-907, limits assumed, looked up): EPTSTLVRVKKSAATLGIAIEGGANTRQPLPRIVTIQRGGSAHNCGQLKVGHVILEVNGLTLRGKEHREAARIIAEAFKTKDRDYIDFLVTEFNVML
The settings on record: plain residues with an end cap or a label only (N-terminal biotin on a linker: ado-ado).

A further assay deals with T14, MPP6, Q9NZW5.
T14 sequence (Q9NZW5 125-219, limits assumed, looked up): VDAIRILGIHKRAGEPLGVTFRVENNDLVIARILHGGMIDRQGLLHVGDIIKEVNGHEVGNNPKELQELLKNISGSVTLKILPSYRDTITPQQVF
The note with it: plain residues with an end cap or a label only (N-terminal biotin on a linker: ado-ado).

The target of a further assay is T15, LIN7C, Q9NUP9.
T15 sequence (Q9NUP9 88-185, limits assumed, looked up): T2 sequence (Q9HAP6 88-185, limits assumed, looked up) with A2S, D13E, V35I, V40I, Q65H, S79K, R89K, A96S
The settings on record: plain residues with an end cap or a label only (N-terminal biotin on a linker: ado-ado).

For a further assay, the target named is T16, HTRA3, P83110.
T16 sequence (P83110 354-453, limits assumed, looked up): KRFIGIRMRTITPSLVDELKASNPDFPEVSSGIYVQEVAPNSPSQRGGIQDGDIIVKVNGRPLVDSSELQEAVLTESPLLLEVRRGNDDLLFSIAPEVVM
The note with it: plain residues with an end cap or a label only (N-terminal biotin on a linker: ado-ado).

The next assay addresses PTPN3, P26045. The note with it: plain residues with an end cap or a label only (N-terminal biotin on a linker: ado-ado).
Setting [1] is: plain residues with an end cap or a label only (N-terminal biotin on a linker: ado-ado).
Setting [2] is: plain residues with an end cap or a label only (N-terminal biotin on a linker: ahx).

Sequence of MAGI1_2, Q96QZ7 (Q96QZ7 456-580): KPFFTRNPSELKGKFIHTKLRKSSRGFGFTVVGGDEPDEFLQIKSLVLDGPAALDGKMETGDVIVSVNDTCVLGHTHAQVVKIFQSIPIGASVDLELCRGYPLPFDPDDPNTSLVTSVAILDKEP
Sequence of GIPC2, Q8TF65 (Q8TF65 112-203): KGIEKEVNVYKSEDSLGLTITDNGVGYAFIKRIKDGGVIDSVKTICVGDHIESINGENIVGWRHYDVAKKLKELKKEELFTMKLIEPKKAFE
Sequence of NHERF4_1, Q86UT5-2 (Q86UT5 other isoform, or with tags, fused parts or gaps): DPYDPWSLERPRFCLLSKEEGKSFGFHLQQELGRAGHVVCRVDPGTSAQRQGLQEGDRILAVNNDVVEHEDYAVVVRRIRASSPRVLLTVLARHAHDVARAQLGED
Sequence of MAST1, Q9Y2H9 (Q9Y2H9 962-1065): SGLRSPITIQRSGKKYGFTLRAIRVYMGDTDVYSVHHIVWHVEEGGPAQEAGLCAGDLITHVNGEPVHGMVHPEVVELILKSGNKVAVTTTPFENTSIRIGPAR
Sequence of LNX1_1, Q8TBB1 (Q8TBB1 261-371): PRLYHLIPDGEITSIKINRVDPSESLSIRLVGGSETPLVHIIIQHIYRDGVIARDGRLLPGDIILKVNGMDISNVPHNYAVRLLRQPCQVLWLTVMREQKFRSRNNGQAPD
Sequence of GRID2IP_2, A4D2P6 (A4D2P6 272-370): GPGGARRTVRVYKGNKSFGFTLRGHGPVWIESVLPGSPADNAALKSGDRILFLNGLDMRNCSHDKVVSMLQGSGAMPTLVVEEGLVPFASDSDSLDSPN
Sequence of HTRA1, Q92743 (Q92743 360-477): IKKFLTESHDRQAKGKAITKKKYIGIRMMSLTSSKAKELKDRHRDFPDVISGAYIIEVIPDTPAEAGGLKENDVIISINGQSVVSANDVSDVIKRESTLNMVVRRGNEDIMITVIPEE
Sequence of TJP2_1, Q9UDY2 (Q9UDY2 24-128): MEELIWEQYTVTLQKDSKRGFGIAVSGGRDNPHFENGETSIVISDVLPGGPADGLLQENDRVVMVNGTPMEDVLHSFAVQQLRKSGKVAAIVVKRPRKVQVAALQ
Sequence of TJP1_3, Q07157 (Q07157 416-512): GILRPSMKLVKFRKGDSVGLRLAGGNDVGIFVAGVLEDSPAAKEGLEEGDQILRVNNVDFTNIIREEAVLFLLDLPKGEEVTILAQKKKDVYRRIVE
Sequence of DLG4_2, P78352 (P78352 155-259): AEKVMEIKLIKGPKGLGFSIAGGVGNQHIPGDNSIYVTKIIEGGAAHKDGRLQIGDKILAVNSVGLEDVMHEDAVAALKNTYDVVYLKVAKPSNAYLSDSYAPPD
Sequence of IL16_3, Q14005 (Q14005 1107-1207): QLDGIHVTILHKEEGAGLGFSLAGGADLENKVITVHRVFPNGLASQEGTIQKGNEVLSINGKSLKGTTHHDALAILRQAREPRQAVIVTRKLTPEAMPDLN
Sequence of Inadl_10, Q8NI35 (Q8NI35 1673-1763): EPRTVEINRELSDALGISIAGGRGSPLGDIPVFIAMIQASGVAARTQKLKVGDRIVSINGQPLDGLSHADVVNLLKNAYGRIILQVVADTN
Sequence of GRASP, Q7Z6J2 (Q7Z6J2 96-193): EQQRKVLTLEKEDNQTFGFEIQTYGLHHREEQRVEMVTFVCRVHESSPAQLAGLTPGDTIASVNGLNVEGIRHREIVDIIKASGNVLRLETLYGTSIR
Sequence of MAGI2_6, Q86UL8 (Q86UL8 1141-1229): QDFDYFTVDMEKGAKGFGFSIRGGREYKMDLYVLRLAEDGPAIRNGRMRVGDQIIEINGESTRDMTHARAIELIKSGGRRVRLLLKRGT
Sequence of APBA3_1, O96018 (O96018 other isoform, or with tags, fused parts or gaps): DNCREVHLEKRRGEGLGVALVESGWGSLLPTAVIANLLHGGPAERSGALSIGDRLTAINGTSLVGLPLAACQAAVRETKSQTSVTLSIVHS
Sequence of ARHGEF12, Q9NZN5-2 (Q9NZN5 other isoform, or with tags, fused parts or gaps): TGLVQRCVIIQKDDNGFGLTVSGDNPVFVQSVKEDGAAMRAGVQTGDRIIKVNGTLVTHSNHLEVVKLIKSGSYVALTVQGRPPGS
Sequence of MAGI2_5, Q86UL8 (Q86UL8 915-1017): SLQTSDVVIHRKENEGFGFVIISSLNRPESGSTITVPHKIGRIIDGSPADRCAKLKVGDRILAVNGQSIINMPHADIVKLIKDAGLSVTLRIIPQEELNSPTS
Sequence of PTPN3, P26045 (P26045 505-587): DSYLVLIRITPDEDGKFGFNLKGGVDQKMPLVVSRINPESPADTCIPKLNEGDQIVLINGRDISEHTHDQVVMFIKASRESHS
Sequence of DLG1_3, Q12959 (Q12959 457-571): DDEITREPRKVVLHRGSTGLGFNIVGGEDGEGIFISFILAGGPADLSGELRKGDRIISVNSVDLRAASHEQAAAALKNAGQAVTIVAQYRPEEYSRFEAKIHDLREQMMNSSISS
Sequence of NOS1, P29475 (P29475 9-101): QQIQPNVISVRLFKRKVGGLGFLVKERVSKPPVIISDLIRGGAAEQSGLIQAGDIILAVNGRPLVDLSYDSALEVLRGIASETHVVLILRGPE
Sequence of DLG1_2, Q12959 (Q12959 314-412): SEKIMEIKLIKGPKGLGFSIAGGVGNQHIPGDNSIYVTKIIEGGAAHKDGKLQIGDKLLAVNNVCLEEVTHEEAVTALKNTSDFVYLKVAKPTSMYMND
Sequence of FRMPD2_1, Q68DX3 (Q68DX3 770-861): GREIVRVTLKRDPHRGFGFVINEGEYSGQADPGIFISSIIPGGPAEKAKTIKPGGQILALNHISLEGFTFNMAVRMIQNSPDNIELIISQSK
Sequence of IL16_1, Q14005 (Q14005 210-306): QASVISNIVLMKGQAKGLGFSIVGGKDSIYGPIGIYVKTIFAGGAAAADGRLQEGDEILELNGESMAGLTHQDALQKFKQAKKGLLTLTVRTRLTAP

B1: LSM14A, Q8ND56 (peptide)
chain: EYRKDNKVAA
With B1, the pKd with ARHGAP21, Q5T5U3 came out at 3.67; with LIN7B, Q9HAP6, 3.83; in the assay with HTRA1, Q92743 (setting [1]), 3.67; with SHANK1, Q9Y566 it was 3.51; with MPDZ_12, O75970 it was 3.68; with TJP2_1, Q9UDY2, 3.57. Moreover, the pKd with GRIP1_5, Q9Y3R0 is 3.6; with IL16_3, Q14005, 3.51; with MPDZ_10, O75970, 3.68; with GORASP2, Q9H8Y8, 3.52; in the assay with TJP1_3, Q07157 it was 3.53; with DLG2_2, Q15700 (setting [1]), 3.54. For the same molecule, the negative logarithm of the Kd (pKd) in the assay with DLG1_3, Q12959 came out at 3.64; with DLG2_3, Q15700, 3.88; with DLG3_1, Q92796 it was 3.55; with FRMPD2_1, Q68DX3 it was 3.68; in the assay with LNX1_1, Q8TBB1 (setting [1]), 3.82; with DLG4_2, P78352, 3.71. This molecule gave a pKd with NHERF4_1, Q86UT5-2 of 3.61.

B2: a stretch of P69709, P69709 (peptide)
chain: RRSQSPSANC
As for B2, in the assay with APBA3_1, O96018, the pKd result was “below the threshold”.

B3: PDLIM7, Q9NR12 (peptide)
chain: LCKSHAFSHV
B3: the pKd in the assay with MAGI1_2, Q96QZ7 (setting [2]) came out at 3.9; with TIAM2, Q8IVF5 (setting [2]) it was 3.48; in the assay with MAGI2_6, Q86UL8 it was 3.61; in the assay with GIPC2, Q8TF65 (setting [2]) it was 3.67; in the assay with HTRA1, Q92743 (setting [2]), 3.68; in the assay with APBA1_2, Q02410, 3.83. Also, the pKd turned out to be 3.48 in the assay with DLG1_2, Q12959; 3.65 with GRASP, Q7Z6J2; 3.75 in the assay with MAST1, Q9Y2H9 (setting [2]); 3.51 with IL16_1, Q14005; 3.62 with GRID2IP_2, A4D2P6 (setting [2]); 3.56 with DLG2_2, Q15700 (setting [2]). For the same molecule, the negative-log Kd (pKd) in the assay with Inadl_10, Q8NI35 was 3.52; with NOS1, P29475 it was 3.48; with ARHGEF12, Q9NZN5-2, 3.55; in the assay with MAGI2_5, Q86UL8, 3.86; with ARHGEF11, O15085, 3.48; with LNX1_1, Q8TBB1 (setting [2]) it was 3.51. In the assay with SYNJ2BP, P57105 (setting [2]), the pKd turned out to be 3.7.

B4: NDE1, Q9NXR1 (peptide)
chain: KSTTRSSSSC
Turning to B4, the pKd in the assay with MAGI1_2, Q96QZ7 (setting [1]) was 3.71; with TIAM2, Q8IVF5 (setting [1]), 3.85; in the assay with PDZD7_3, Q9H5P4, 3.73; with DFNB31_3, Q9P202, 3.75; with GIPC2, Q8TF65 (setting [1]) it was 3.64; with LIN7B, Q9HAP6, 3.64. Moreover, the pKd with MPP6, Q9NZW5 is 3.6; in the assay with LIN7C, Q9NUP9 it was 3.88; with MAST1, Q9Y2H9 (setting [1]), 3.61; in the assay with GRID2IP_2, A4D2P6 (setting [1]) it was 3.59; in the assay with HTRA3, P83110 it was 3.74; with DLG2_3, Q15700 it was 3.58. Also, the pKd stood at 3.52 with PTPN3, P26045; 3.85 with NHERF4_1, Q86UT5-2; 3.76 with SYNJ2BP, P57105 (setting [1]).
